According to EP4772539A1 (Jiangsu Hengrui Pharmaceuticals Co., Ltd., dated 2026):
Where two headings read alike, the source gives them in different places.

T1: human CTLA4 protein expressed on cells (CHOK1-CTLA4, HEK293-CTLA4) (human, UniProt P16410 36-223)
T1 construct: whole, on cells; also called CHOK1-CTLA4 cells; HEK293-CTLA4 single-positive cells
T1 sequence (looked up): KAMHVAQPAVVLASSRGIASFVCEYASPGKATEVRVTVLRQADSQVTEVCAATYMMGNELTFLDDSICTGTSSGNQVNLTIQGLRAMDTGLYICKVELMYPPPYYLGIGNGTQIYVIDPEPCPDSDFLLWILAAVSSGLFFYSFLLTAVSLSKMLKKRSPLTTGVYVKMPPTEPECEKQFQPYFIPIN

T2: human TIGIT protein expressed on cells (CHOK1-TIGIT) (human, UniProt Q495A1 22-244)
T2 construct: whole, on cells; also called CHOK1-TIGIT cells
T2 sequence (looked up): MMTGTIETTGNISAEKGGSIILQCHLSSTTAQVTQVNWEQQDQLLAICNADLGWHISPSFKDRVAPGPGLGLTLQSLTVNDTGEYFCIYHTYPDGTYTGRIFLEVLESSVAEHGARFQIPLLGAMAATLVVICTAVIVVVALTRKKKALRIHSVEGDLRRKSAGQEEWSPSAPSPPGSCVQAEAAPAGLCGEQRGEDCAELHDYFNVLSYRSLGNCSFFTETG

T3: human TIGIT (Acro Biosystems Cat#TIT-H52H5) (human, UniProt Q495A1 22-141)
T3 construct: Soluble bought protein; also called TIGIT protein; human TIGIT antigen
T3 sequence (looked up): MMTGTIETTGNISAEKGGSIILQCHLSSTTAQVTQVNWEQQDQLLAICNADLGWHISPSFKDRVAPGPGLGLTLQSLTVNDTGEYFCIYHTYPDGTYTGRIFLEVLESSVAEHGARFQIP


Assays:
[1] = target: T1, human CTLA4 protein expressed on cells …; test: flow cytometry on CHOK1-CTLA4 cells
[2] = target: T1, human CTLA4 protein expressed on cells …; test: flow cytometry on CHOK1-CTLA4 cells; remark: listed apart in the source
[3] = target: T1, human CTLA4 protein expressed on cells …; test: flow cytometry, blocking of CHOK1-CTLA4 cells binding to CHOK1-CD80 cells (competitor: CD80 on cells)
[4] = target: T2, human TIGIT protein expressed on cells …; test: flow cytometry, blocking of CHOK1-TIGIT cells binding to CHOK1-CD155 cells (competitor: CD155 on cells)
[5] = target: T2, human TIGIT protein expressed on cells …; test: flow cytometry on CHOK1-TIGIT cells
[6] = target: T3, human TIGIT (Acro Biosystems …); test: SPR (Biacore 8K), antigen captured by anti-His antibody on CM5 chip, antibody as analyte, 1:1 binding
[7] = target: T3, human TIGIT (Acro Biosystems …); test: SPR (Biacore 8K), antibody captured on Protein A chip, antigen as analyte, 1:1 binding

Row | EC50 [1] [nM] | EC50 [2] [nM] | IC50 [3] [nM] | IC50 [4] [nM] | EC50 [5] [nM] | Kd [6] [nM] | koff [6] [s⁻¹] | kon [6] [M⁻¹ s⁻¹] | Kd [7] [nM] | koff [7] [s⁻¹] | kon [7] [M⁻¹ s⁻¹] | Binder
1 | 1.27 | 0.53 | 0.49 | – | – | – | – | – | – | – | – | Anti-CTLA4 antibody Tre (antibody, V domains shown) VH: QVQLVESGGGVVQPGRSLRLSCAASGFTFSSYGMHWVRQAPGKGLEWVAVIWYDGSNKYYADSVKGRFTISRDNSKNTLYLQMNSLRAEDTAVYYCARDPRGATLYYYYYGMDVWGQGTTVTVSS VL: DIQMTQSPSSLSASVGDRVTITCRASQSINSYLDWYQQKPGKAPKLLIYAASSLQSGVPSRFSGSGSGTDFTLTISSLQPEDFATYYCQQYYSTPFTFGPGTKVEIK
2 | – | – | – | 0.67 | 0.48 | – | – | – | – | – | – | Anti-TIGIT antibody RG6058 (antibody, V domains shown) VH: EVQLQQSGPGLVKPSQTLSLTCAISGDSVSSNSAAWNWIRQSPSRGLEWLGKTYYRFKWYSDYAVSVKGRITINPDTSKNQFSLQLNSVTPEDTAVFYCTRESTTYDLLAGPFDYWGQGTLVTVSS VL: not shown
3 | – | – | – | 1.44 | 0.72 | 0.535 | 0.00052 | 972000 | 0.0411 | 7.13e-05 | 1.73e+06 | anti-CTLA4/TIGIT antibody As-3 (bispecific antibody, human IgG1, kappa) heavy 1: QVQLVESGGGVVQPGRSLRLSCAASGFTFSSYTMHWVRQAPGKGLEWVTFISYDGNNKYYADSVKGRFTISRDNSKNTLYLQMNSLRAEDTAIYYCARTGWLGPFDYWGQGTLVTVSSGGGGSSGAPRFLTRPKASVVSVGKDATLSCQIVGNPFPQVSWEKDKQPVTAGVRFRLAQDGDLYRLKILDLQLSDSGQYVCRARNAHGEAFACLGLQVDAEADKTHTCPPCPAPELLGGPDVFLFPPKPKDTLMISRTPEVTCVVVDVSHEDPEVKFNWYVDGVEVHNAKTKPREEQYNSTYRVVSVLTVLHQDWLNGKEYKCKVSNKALPLPEEKTISKAKGQPREPQVYTLPPCREEMTKNQVSLWCLVKGFYPSDIAVEWESNGQPENNYKTTPPVLDSDGSFFLYSKLTVDKSRWQQGNVFSCSVMHEALHNHYTQKSLSLSPGK light 1: not shown heavy 2: EVQLVQSGAEVKKPGASVKVSCKASGYTFTNYWMHWVRQAPGQGLEWMGRIDPDSTGSKYNEKFKTRVTMTRDTSTSTVYMELSSLRSEDTAVYYCAREGAYGYYFDYWGQGTLVTVSSASTKGPSVFPLAPSSKSTSGGTAALGCLVKDYFPEPVTVSWNSGALTSGVHTFPAVLQSSGLYSLSSVVTVPSSSLGTQTYICNVNHKPSNTKVDKKVEPKSCDKTHTCPPCPAPELLGGPDVFLFPPKPKDTLMISRTPEVTCVVVDVSHEDPEVKFNWYVDGVEVHNAKTKPREEQYNSTYRVVSVLTVLHQDWLNGKEYKCKVSNKALPLPEEKTISKAKGQPREPQVCTLPPSREEMTKNQVSLSCAVKGFYPSDIAVEWESNGQPENNYKTTPPVLDSDGSFFLVSKLTVDKSRWQQGNVFSCSVMHEALHNHYTQKSLSLSPGK light 2: DIQMTQSPSSLSASVGDRVTITCRASENIYSYLAWYQQKPGKSPKLLIYNARTLAEGVPSRFSGSGSGTDFTLTISSLQPEDFATYYCQYHSGSPLPFGGGTKVEIKRTVAAPSVFIFPPSDEQLKSGTASVVCLLNNFYPREAKVQWKVDNALQSGNSQESVTEQDSKDSTYSLSSTLTLSKADYEKHKVYACEVTHQGLSSPVTKSFNRGEC
4 | – | 3.35 | 1.42 | 0.42 | 0.43 | – | – | – | – | – | – | anti-CTLA4/TIGIT antibody S-15 (bispecific antibody, Symmetric bispecific antibody with one kind of heavy chain and two kinds of light chain) heavy: EVQLVQSGAEVKKPGASVKVSCKASGYTFTNYWMHWVRQAPGQGLEWMGRIDPDSTGSKYNEKFKTRVTMTRDTSTSTVYMELSSLRSEDTAVYYCAREGAYGYYFDYWGQGTLVTVSSASTKGPSVFPLAPSSKSTSGGTAALGCLVKDYFPEPVTVSWNSGALTSGVHTFPAVLQSSGLYSLSSVVTVPSSSLGTQTYICNVNHKPSNTKVDKKVEPKSCDGGGGSGGGGSGGGGSQVQLVESGGGVVQPGRSLRLSCAASGFTFSSYGMHWVRQAPGKGLEWVAVIWYDGSNKYYADSVKGRFTISRDNSKNTLYLQMNSLRAEDTAVYYCARDPRGATLYYYYYGMDVWGQGTTVTVSSGGGGSSGAPRFLTRPKASVVSVGKDATLSCQIVGNPFPQVSWEKDKQPVTAGVRFRLAQDGDLYRLKILDLQLSDSGQYVCRARNAHGEAFACLGLQVDAEADKTHTCPPCPAPELLGGPDVFLFPPKPKDTLMISRTPEVTCVVVDVSHEDPEVKFNWYVDGVEVHNAKTKPREEQYNSTYRVVSVLTVLHQDWLNGKEYKCKVSNKALPLPEEKTISKAKGQPREPQVYTLPPSREEMTKNQVSLTCLVKGFYPSDIAVEWESNGQPENNYKTTPPVLDSDGSFFLYSKLTVDKSRWQQGNVFSCSVMHEALHNHYTQKSLSLSPGK light 1: DIQMTQSPSSLSASVGDRVTITCRASENIYSYLAWYQQKPGKSPKLLIYNARTLAEGVPSRFSGSGSGTDFTLTISSLQPEDFATYYCQYHSGSPLPFGGGTKVEIKRTVAAPSVFIFPPSDEQLKSGTASVVCLLNNFYPREAKVQWKVDNALQSGNSQESVTEQDSKDSTYSLSSTLTLSKADYEKHKVYACEVTHQGLSSPVTKSFNRGEC light 2: DIQMTQSPSSLSASVGDRVTITCRASQSINSYLDWYQQKPGKAPKLLIYAASSLQSGVPSRFSGSGSGTDFTLTISSLQPEDFATYYCQQYYSTPFTFGPGTKVEIKGGGGSGIPPKIECLPIDISIDEGKVLTVASAFTGEPTPEVTWSTGGRKIHSQEQGRFHIENTDDSTTLTIKDVQKQDGGLYTLTLRNEFGSDSATVNIHIRSI
